Measurements reported in paper PMC11324105.

Molecular target: Nb9-R59A (alpaca)
Assay: BLI

Chain of Nb9-R59A (alpaca) (heavy, as listed by the source): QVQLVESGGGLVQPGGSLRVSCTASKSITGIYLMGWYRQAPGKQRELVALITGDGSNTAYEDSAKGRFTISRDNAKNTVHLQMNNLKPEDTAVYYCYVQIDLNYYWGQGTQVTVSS

Q: Which results are given for “MERS-CoV RBD (from UniProt K9N5Q8) (domain or fragment)”?
A: Kd: 4.58 µM; koff: 0.0624 s⁻¹; kon: 13600 M⁻¹ s⁻¹
